Assay results taken from US20110178017A1 (PHASEBIO PHARMACEUTICALS, published 2011).

T1: human Vasoactive Intestinal Peptide Receptor 1 (VPAC1) (human, UniProt P32241 31-457)
T1 sequence (looked up): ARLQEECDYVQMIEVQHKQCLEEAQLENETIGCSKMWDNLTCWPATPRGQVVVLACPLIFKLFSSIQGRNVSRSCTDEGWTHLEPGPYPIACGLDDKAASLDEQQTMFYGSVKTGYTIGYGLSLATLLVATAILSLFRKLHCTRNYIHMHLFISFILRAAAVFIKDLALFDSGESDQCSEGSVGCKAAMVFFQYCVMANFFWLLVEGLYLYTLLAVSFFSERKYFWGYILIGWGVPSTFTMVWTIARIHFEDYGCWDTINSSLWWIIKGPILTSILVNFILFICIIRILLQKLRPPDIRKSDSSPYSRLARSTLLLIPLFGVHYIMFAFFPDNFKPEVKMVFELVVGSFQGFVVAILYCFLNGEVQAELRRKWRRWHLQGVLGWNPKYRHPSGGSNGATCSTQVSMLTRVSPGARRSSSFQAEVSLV


Experiments:
Experiment in all cases: cell-based or functional assay
[1] = target: human Vasoactive Intestinal Peptide Receptor 1 (VPAC1) (human) (UniProt P32241)
[2] = target: human Vasoactive Intestinal Peptide Receptor 2 (VPAC2) (human) (UniProt P41587)
[3] = target: T1, human Vasoactive Intestinal Peptide …

human Vasoactive Intestinal Peptide Receptor 2 (VPAC2) (human), sequence (P41587 24-438): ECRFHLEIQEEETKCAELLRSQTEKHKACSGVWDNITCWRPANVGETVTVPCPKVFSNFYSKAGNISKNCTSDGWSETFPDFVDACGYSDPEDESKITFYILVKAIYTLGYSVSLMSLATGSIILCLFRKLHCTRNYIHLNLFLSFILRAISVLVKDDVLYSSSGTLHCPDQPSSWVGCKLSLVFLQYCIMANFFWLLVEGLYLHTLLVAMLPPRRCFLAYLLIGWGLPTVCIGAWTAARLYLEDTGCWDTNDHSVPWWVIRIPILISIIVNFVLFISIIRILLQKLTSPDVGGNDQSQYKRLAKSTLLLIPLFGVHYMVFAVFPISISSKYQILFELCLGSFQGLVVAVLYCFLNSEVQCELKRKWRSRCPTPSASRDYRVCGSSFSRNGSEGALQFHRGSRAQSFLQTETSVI

activity (cAMP) in CHO cells expressing VPAC1, relative to native VIP (fold less active than native VIP) [1]	activity (cAMP) in CHO cells expressing VPAC2, relative to native VIP (fold less active than native VIP) [2]	activity (cAMP) in CHO cells expressing VPAC1, relative to native VIP [3]	Molecule
1.4	1.5		PB1120 (VIP-ELP1-120 fusion peptide)
		~11 fold less active than native VIP	PB1046 (M-VIP-ELP1-120 fusion protein) (other) MHSDAVFTDNYTRLRKQMAVKKYLNSILNVPGVGVPGVGVPGGGVPGAGVPGVGVPGVGVPGVGVPGGGVPGAGVPGGGVPGVGVPGVGVPGGGVPGAGVPGVGVPGVGVPGVGVPGGGVPGAGVPGGGVPGVGVPGVGVPGGGVPGAGVPGVGVPGVGVPGVGVPGGGVPGAGVPGGGVPGVGVPGVGVPGGGVPGAGVPGVGVPGVGVPGVGVPGGGVPGAGVPGGGVPGVGVPGVGVPGGGVPGAGVPGVGVPGVGVPGVGVPGGGVPGAGVPGGGVPGVGVPGVGVPGGGVPGAGVPGVGVPGVGVPGVGVPGGGVPGAGVPGGGVPGVGVPGVGVPGGGVPGAGVPGVGVPGVGVPGVGVPGGGVPGAGVPGGGVPGVGVPGVGVPGGGVPGAGVPGVGVPGVGVPGVGVPGGGVPGAGVPGGGVPGVGVPGVGVPGGGVPGAGVPGVGVPGVGVPGVGVPGGGVPGAGVPGGGVPGVGVPGVGVPGGGVPGAGVPGVGVPGVGVPGVGVPGGGVPGAGVPGGGVPGVGVPGVGVPGGGVPGAGVPGVGVPGVGVPGVGVPGGGVPGAGVPGGGVPGVGVPGVGVPGGGVPGAGVPGVGVPGVGVPGVGVPGGGVPGAGVPGGGVPGWP
